These results are taken from paper PMC4354016, “Centromeric binding and activity of Protein Phosphatase 4” (Nature Communications, 2015).

Settings in all cases: both partners purified
In one assay the target is T1, Flfl^1–122 (Drosophila melanogaster, UniProt Q9VFS5 1-122).
T1 construct: Falafel (Flfl) residues 1-122, holds the EVH1 domain; residues 4-114 are in the final model; also called Falafel (1–122); His::TEV::Flfl^1–122aa; source: E. coli BL21 (DE3) RIL, purified (HisTrap, TEV cleavage, anion exchange, SEC); not shown: 6xHis, N-terminal, cleaved
T1 sequence (looked up): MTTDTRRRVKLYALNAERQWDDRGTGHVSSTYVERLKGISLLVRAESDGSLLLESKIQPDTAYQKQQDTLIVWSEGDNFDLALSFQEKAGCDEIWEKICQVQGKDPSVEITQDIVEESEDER
Kind of assay: crystal structure; Flfl^1–122 at 22 mg/ml incubated overnight with FIM peptide 1:1.3, sitting drop, ammonium sulfate; 1.5 Å.

The target in assay [1] is T2, recombinant Flfl^1–168 (untagged) (Drosophila melanogaster, UniProt Q9VFS5 1-168).
T2 construct: pETDuet-1 (MCS1), TEV site between His tag and Flfl; source: E. coli Rosetta2(DE3)pLysS, purified (Ni-NTA, TEV cleavage, re-incubation with Ni-NTA); not shown: 6xHis, N-terminal, cleaved
T2 sequence (looked up): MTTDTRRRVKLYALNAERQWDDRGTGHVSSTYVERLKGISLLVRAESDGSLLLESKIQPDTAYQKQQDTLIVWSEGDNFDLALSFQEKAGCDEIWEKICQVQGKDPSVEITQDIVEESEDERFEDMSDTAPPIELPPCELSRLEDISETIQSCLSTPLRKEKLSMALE
Description: peptide or protein array; substitution array: every residue of the 19-mer FIM replaced by the other amino acids, on cellulose membrane; 100 nM untagged Flfl^1–168, 4 °C overnight; anti-Flfl detection.

The target in assay [2] is T2, recombinant Flfl^1–168 (untagged). Kind of assay: SEC; Flfl^1–168 and CENP-C^FBD mixed ~1:1 molar ratio, 16 h on ice, Superdex 200; fractions on SDS-PAGE, Coomassie. Background: Size exclusion chromatography separates by hydrodynamic size, large species first.

B1: CENP-C^FIM peptide (peptide)
peptide: PDESSADVVFKKPLAPAPR
notes: source: synthetic peptide (in solution for crystallisation; spotted onto a cellulose membrane for the substitution array)
For B1, the binding result (in the assay with Flfl^1–122; in assay [1]) was “binds” throughout.

B2: recombinant CENP-C^FBD (untagged) (domain or fragment, Drosophila melanogaster, UniProt Q9VHP9 1002-1093, looked up)
chain: IDQNSDDVPSRNPSPSRTLLSDDVPSTSRAALEFLQRSQNMSKSRPPDESSADVVFKKPLAPAPRAKSKKGKSEVDKLKLAKMPVEAEELNT
notes: pETDuet-1 (MCS1), TEV site between His tag and FBD; also called His::TEV::CENP-C^FBD; source: E. coli Rosetta2(DE3)pLysS, purified (Ni-NTA, TEV cleavage, re-incubation with Ni-NTA); not shown: 6xHis, N-terminal, cleaved
As for B2, the binding result in assay [2] is listed as “binds”.
